Data reported in the supplement of paper PMC10724198.

system: Saccharomyces cerevisiae; assay: protein stability index of tFT-peptide fusion in wild type (PSI (0-1 scale)); higher = more stable (slower turnover); details: genetic background: wild type
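For protein stability index of tFT-peptide fusion in deletion strain of DOA10 in this document: PSI per variant is the weighted mean of its sequencing read distribution over the sorted stability bins, counting only variants with over 10 reads summed across bins.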
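For protein stability index of tFT-peptide fusion in wild type in this document: PSI derived as read-weighted mean over the 8 sorting bins, only variants exceeding 10 total reads kept, mCherry placed adjacent to the peptide and sfGFP distal.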

Going from GLSMCSVGCWFR to GLYECSVGCWFR, the protein stability index rises from 0.235 to 0.526.

Going from GLYMCSQGCWFR to GLYMCSVFCWFR, the protein stability index falls from 0.463 to 0.222.

Going from GLYMCSVGCCFR to GLYMCSVGCWFA, the protein stability index falls from 0.611 to 0.35.

First: GLYMCSVGCWFRA
Second: GLYMCSVGCWFRC
The protein stability index of the first is higher: 0.225 for the first, 0.188 for the second.

First: GLYMCSVGCWFRI
Second: GLYMCSVGCWRR
The protein stability index of the first is lower: 0.11 for the first, 0.62 for the second.

First: GLYMCSVGEWFR
Second: GLYMCSVGYWFR
The protein stability index of the first is higher: 0.663 for the first, 0.213 for the second.

Going from GLYMCSVHCWFR to GLYMCTVGCWFR, the protein stability index falls from 0.371 to 0.219.

First: GLYMGSVGCWFR
Second: GLYTCSVGCWFR
The protein stability index of the first is lower: 0.303 for the first, 0.392 for the second.

Compared with GLYWCSVGCWFR, GPYMCSVGCWFR is higher in protein stability index: 0.246 for the first, 0.413 for the second.

Compared with GTYMCSVGCWFR, HITLPMCPLLLR is lower in protein stability index: 0.344 for the first, 0.332 for the second.

Going from NSLRVLLPLYFR to RCLRVLLPLYFR, the protein stability index falls from 0.357 to 0.257.

Compared with RELRVLLPLYFR, RHTRLDAIYFRI is higher in protein stability index: 0.19 for the first, 0.517 for the second.

Going from RKLRVLLPLYFR to RSDRVLLPLYFR, the protein stability index rises from 0.282 to 0.352.

Going from RSLCVLLPLYFR to RSLHVLLPLYFR, the protein stability index rises from 0.247 to 0.273.

Compared with RSLIVLLPLYFR, RSLRALLPLYFR is higher in protein stability index: 0.288 for the first, 0.491 for the second.

First: RSLRQLLPLYFR
Second: RSLRTLLPLYFR
The protein stability index of the first is higher: 0.466 for the first, 0.455 for the second.

First: RSLRVFLPLYFR
Second: RSLRVLLALYFR
The protein stability index of the first is lower: 0.127 for the first, 0.287 for the second.

Going from RSLRVLLGLYFR to RSLRVLLPCYFR, the protein stability index rises from 0.392 to 0.409.

Going from RSLRVLLPKYFR to RSLRVLLPLGFR, the protein stability index falls from 0.646 to 0.482.

First: RSLRVLLPLQFR
Second: RSLRVLLPLVFR
The protein stability index of the first is higher: 0.472 for the first, 0.356 for the second.

Compared with RSLRVLLPLYFG, RSLRVLLPLYFRS is lower in protein stability index: 0.452 for the first, 0.3 for the second.

Compared with RSLRVLLPLYMR, RSLRVLQPLYFR is lower in protein stability index: 0.326 for the first, 0.285 for the second.

Compared with RSLTVLLPLYFR, RVARLDAIYFRI is higher in protein stability index: 0.24 for the first, 0.449 for the second.

First: RVFRLDAIYFRI
Second: RVTALDAIYFRI
The protein stability index of the first is lower: 0.319 for the first, 0.558 for the second.

For RVTRFDAIYFRI, the protein stability index was 0.287.

system: Saccharomyces cerevisiae; assay: protein stability index of tFT-peptide fusion in deletion strain of DOA10 (PSI (0-1 scale)); higher = more stable (slower turnover); details: not given
Protocol: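 MPS profiling in S. cerevisiae of two library types built from selected 12-aa C-degron peptides (IN1, IN2, LN1, LN3, VN2, R1-R5, W1-W3, Atg1 and Rpa12 C-termini): saturation mutagenesis libraries and C-terminal +1 capping libraries (13 aa). Each peptide is fused to the C-terminus of a sfGFP-mCherry timer, after a GGGS linker. Cells are FACS-sorted into 8 mCherry/sfGFP bins and sequenced. PSI runs from 0 (unstable) to 1 (stable), measured once in wild type and in the das1Δ or doa10Δ background.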

First: GLSMCSVGCWFR
Second: GLYECSVGCWFR
The protein stability index of the first is lower: 0.671 for the first, 0.678 for the second.

Going from GLYMCSQGCWFR to GLYMCSVFCWFR, the protein stability index falls from 0.691 to 0.365.

Going from GLYMCSVGCCFR to GLYMCSVGCWFA, the protein stability index falls from 0.651 to 0.371.

First: GLYMCSVGCWFRA
Second: GLYMCSVGCWFRC
The protein stability index of the first is higher: 0.44 for the first, 0.433 for the second.

Compared with GLYMCSVGCWFRI, GLYMCSVGCWRR is higher in protein stability index: 0.455 for the first, 0.662 for the second.

First: GLYMCSVGEWFR
Second: GLYMCSVGYWFR
The protein stability index of the first is higher: 0.686 for the first, 0.603 for the second.

Going from GLYMCSVHCWFR to GLYMCTVGCWFR, the protein stability index rises from 0.453 to 0.527.

Going from GLYMGSVGCWFR to GLYTCSVGCWFR, the protein stability index falls from 0.704 to 0.682.

First: GLYWCSVGCWFR
Second: GPYMCSVGCWFR
The protein stability index of the first is lower: 0.646 for the first, 0.667 for the second.

First: GTYMCSVGCWFR
Second: HITLPMCPLLLR
The protein stability index of the first is higher: 0.675 for the first, 0.657 for the second.

Going from NSLRVLLPLYFR to RCLRVLLPLYFR, the protein stability index falls from 0.662 to 0.647.

First: RELRVLLPLYFR
Second: RHTRLDAIYFRI
The protein stability index of the first is higher: 0.684 for the first, 0.679 for the second.

Going from RKLRVLLPLYFR to RSDRVLLPLYFR, the protein stability index rises from 0.668 to 0.696.

First: RSLCVLLPLYFR
Second: RSLHVLLPLYFR
The protein stability index of the first is lower: 0.616 for the first, 0.634 for the second.

Going from RSLIVLLPLYFR to RSLRALLPLYFR, the protein stability index rises from 0.597 to 0.684.

Going from RSLRQLLPLYFR to RSLRTLLPLYFR, the protein stability index rises from 0.68 to 0.686.

First: RSLRVFLPLYFR
Second: RSLRVLLALYFR
The protein stability index of the first is higher: 0.693 for the first, 0.552 for the second.

Going from RSLRVLLGLYFR to RSLRVLLPCYFR, the protein stability index falls from 0.662 to 0.647.

Compared with RSLRVLLPKYFR, RSLRVLLPLGFR is higher in protein stability index: 0.676 for the first, 0.682 for the second.

Going from RSLRVLLPLQFR to RSLRVLLPLVFR, the protein stability index rises from 0.635 to 0.676.

Compared with RSLRVLLPLYFG, RSLRVLLPLYFRS is higher in protein stability index: 0.591 for the first, 0.644 for the second.

Compared with RSLRVLLPLYMR, RSLRVLQPLYFR is lower in protein stability index: 0.696 for the first, 0.685 for the second.

First: RSLTVLLPLYFR
Second: RVARLDAIYFRI
The protein stability index of the first is lower: 0.662 for the first, 0.663 for the second.

Going from RVFRLDAIYFRI to RVTALDAIYFRI, the protein stability index rises from 0.619 to 0.69.

RVTRFDAIYFRI was tested, and the protein stability index was 0.645.
